T1: cynomolgus and/or rhesus monkey CD122 His tag (rhesus monkey, UniProt Q38J85 27-240 (cynomolgus entry))
T1 construct: also called rhesus CD122; rhCD122
T1 sequence: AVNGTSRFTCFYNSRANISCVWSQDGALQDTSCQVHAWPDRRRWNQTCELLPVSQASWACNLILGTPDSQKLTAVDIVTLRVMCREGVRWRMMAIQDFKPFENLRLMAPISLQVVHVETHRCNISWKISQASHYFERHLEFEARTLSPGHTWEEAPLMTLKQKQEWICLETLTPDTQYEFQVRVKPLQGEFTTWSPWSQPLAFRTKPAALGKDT

T2: human CD122 His tagged (human, UniProt P14784 27-240)
T2 construct: also called hCD122
T2 sequence: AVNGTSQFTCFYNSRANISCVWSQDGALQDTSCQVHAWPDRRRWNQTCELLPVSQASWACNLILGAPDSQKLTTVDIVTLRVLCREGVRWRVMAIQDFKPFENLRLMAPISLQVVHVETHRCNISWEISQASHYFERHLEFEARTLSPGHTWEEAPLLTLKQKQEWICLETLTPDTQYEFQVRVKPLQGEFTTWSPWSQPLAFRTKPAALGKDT


Experiments:
[1] = target: T1, cynomolgus and/or rhesus monkey CD122 …; assay: BIACORE SPR, Fab on rhesus CD122
Experimental: (§1) A mouse anti-human antibody (CH1 specific) was immobilized on a CMS Sensor Chip to a level of 2000 RU in acetate buffer at pH 4.5 using amine coupling following the Wizard instructions for two channels. One channel was used for background signal correction. The standard running buffer HBS-EP pH 7.4 was used. Regeneration was performed with a single injection of 10 μl of 10 mM Glycine at pH 1.5 at 20 μl/minute. IgG samples were injected for 2 minutes at 50 nM at 30 μl/min followed by and off-rate of 60 seconds. The monomeric antigen (human CD122 His tagged or cynomolgus and/or rhesus monkey CD122 His tag) was injected in two fold serial dilutions from 100 nM down to 3.1 nM, for 2 minutes at 30 μl/min followed by an off-rate of 300 seconds. The obtained sensorgrams were analyzed using the BIACORE® 3000 evaluation (BIAevaluation) software. The KD was calculated by simultaneous fitting of the association and dissociation phases to a 1:1 Langmuir binding model.

human CD122 His tagged = target: T2, human CD122 His tagged; assay: BIACORE SPR, Fab on human CD122
Experimental: as §1

Row | Kd [1] | Kd (human CD122 His tagged) | Binder
1 | 20.6 nM | 38.6 nM | FAB03 (Fab, V domains shown, F11VH-1 + F11VK-123; Human monovalent Fab) VH: not shown VL: DIQMTQSPSSLSASVGDRVTITCQASSSVSFMYWYQQRPGKAPRLLIYDTSNLASGVPSRFSGSGSGTSYTFTISSLQPEDIATYYCQQWDTYPLTFGQGTKVEIK
2 | 19.5 nM | 21.8 nM | FAB12 (Fab, V domains shown, F11VH-23 + F11VK-123; Human monovalent Fab) VH: EVQLLESGGGLVQPGGSLRLSCAASGFTVTSYAVHWVRQAPGKGLEWLGVIWSGGSTDYNAAFISRLTISKDNSKNTVYFQMNSLRAEDTAVYYCARAGDYNYDGFAYWGQGTLVTVSS VL: DIQMTQSPSSLSASVGDRVTITCQASSSVSFMYWYQQRPGKAPRLLIYDTSNLASGVPSRFSGSGSGTSYTFTISSLQPEDIATYYCQQWDTYPLTFGQGTKVEIK
3 | 36.5 nM | 72.5 nM | FAB09 (Fab, V domains shown, F11VH-13 + F11VK-123; Human monovalent Fab) VH: not shown VL: DIQMTQSPSSLSASVGDRVTITCQASSSVSFMYWYQQRPGKAPRLLIYDTSNLASGVPSRFSGSGSGTSYTFTISSLQPEDIATYYCQQWDTYPLTFGQGTKVEIK
